First the molecules themselves.
B1: CE115HA000 K64Q (antibody, human IgG1, kappa, L234A L235A, N297A, name in Kabat numbering)
heavy: QVQLVESGGGVVQPGRSLRLSCAASGFTFSNAWMHWVRQAPGKGLEWVAQIKAKSNNYATYYAESVQGRFTISRDDSKNSLYLQMNSLKTEDTAVYYCRYVHYGAYYGVDAWGQGTTVTVSSASTKGPSVFPLAPSSKSTSGGTAALGCLVKDYFPEPVTVSWNSGALTSGVHTFPAVLQSSGLYSLSSVVTVPSSSLGTQTYICNVNHKPSNTKVDKKVEPKSCDKTHTCPPCPAPEAAGGPSVFLFPPKPKDTLMISRTPEVTCVVVDVSHEDPEVKFNWYVDGVEVHNAKTKPREEQYASTYRVVSVLTVLHQDWLNGKEYKCKVSNKALPAPIEKTISKAKGQPREPQVYTLPPSRCELTKNQVSLSCAVKGFYPSDIAVEWESNGQPENNYKTTPPVLDSDGSFFLVSKLTVDKSRWQQGNVFSCSVMHEALHNHYTQKSLSLSPDYKDDDDK
chain: EPKSSDKTHTCPPCPAPELLGGPSVFLFPPKPKDTLMISRTPEVTCVVVDVSHEDPEVKFNWYVDGVEVHNAKTKPREEQYNSTYRVVSVLTVLHQDWLNGKEYKCKVSNKALPAPIEKTISKAKGQPREPQVCTLPPSRDELTKNQVSLWCLVKGFYPSDIAVEWESNGQPENNYKTTPPVLDSDGSFFLYSKLTVDKSRWQQGNVFSCSVMHEALHNRYTQKSLSLSP
light: DIVMTQSPLSLPVTPGEPASISCRSSQSLVHSNRNTYLHWYQQKPGQAPRLLIYKVSNRFSGVPDRFSGSGSGTDFTLKISRVEAEDVGVYYCGQGTQVPYTFGQGTKLEIKRTVAAPSVFIFPPSDEQLKSGTASVVCLLNNFYPREAKVQWKVDNALQSGNSQESVTEQDSKDSTYSLSSTLTLSKADYEKHKVYACEVTHQGLSSPVTKSFNRGEC
notes: one-arm antibody
B2: CE115HA000 N31A (antibody, human IgG1, kappa, L234A L235A, N297A, name in Kabat numbering)
heavy: QVQLVESGGGVVQPGRSLRLSCAASGFTFSAAWMHWVRQAPGKGLEWVAQIKAKSNNYATYYAESVKGRFTISRDDSKNSLYLQMNSLKTEDTAVYYCRYVHYGAYYGVDAWGQGTTVTVSSASTKGPSVFPLAPSSKSTSGGTAALGCLVKDYFPEPVTVSWNSGALTSGVHTFPAVLQSSGLYSLSSVVTVPSSSLGTQTYICNVNHKPSNTKVDKKVEPKSCDKTHTCPPCPAPEAAGGPSVFLFPPKPKDTLMISRTPEVTCVVVDVSHEDPEVKFNWYVDGVEVHNAKTKPREEQYASTYRVVSVLTVLHQDWLNGKEYKCKVSNKALPAPIEKTISKAKGQPREPQVYTLPPSRCELTKNQVSLSCAVKGFYPSDIAVEWESNGQPENNYKTTPPVLDSDGSFFLVSKLTVDKSRWQQGNVFSCSVMHEALHNHYTQKSLSLSPDYKDDDDK
chain: EPKSSDKTHTCPPCPAPELLGGPSVFLFPPKPKDTLMISRTPEVTCVVVDVSHEDPEVKFNWYVDGVEVHNAKTKPREEQYNSTYRVVSVLTVLHQDWLNGKEYKCKVSNKALPAPIEKTISKAKGQPREPQVCTLPPSRDELTKNQVSLWCLVKGFYPSDIAVEWESNGQPENNYKTTPPVLDSDGSFFLYSKLTVDKSRWQQGNVFSCSVMHEALHNRYTQKSLSLSP
light: DIVMTQSPLSLPVTPGEPASISCRSSQSLVHSNRNTYLHWYQQKPGQAPRLLIYKVSNRFSGVPDRFSGSGSGTDFTLKISRVEAEDVGVYYCGQGTQVPYTFGQGTKLEIKRTVAAPSVFIFPPSDEQLKSGTASVVCLLNNFYPREAKVQWKVDNALQSGNSQESVTEQDSKDSTYSLSSTLTLSKADYEKHKVYACEVTHQGLSSPVTKSFNRGEC
notes: one-arm antibody
B3: CE115HA000 K64S (antibody, human IgG1, kappa, L234A L235A, N297A, name in Kabat numbering)
heavy: QVQLVESGGGVVQPGRSLRLSCAASGFTFSNAWMHWVRQAPGKGLEWVAQIKAKSNNYATYYAESVSGRFTISRDDSKNSLYLQMNSLKTEDTAVYYCRYVHYGAYYGVDAWGQGTTVTVSSASTKGPSVFPLAPSSKSTSGGTAALGCLVKDYFPEPVTVSWNSGALTSGVHTFPAVLQSSGLYSLSSVVTVPSSSLGTQTYICNVNHKPSNTKVDKKVEPKSCDKTHTCPPCPAPEAAGGPSVFLFPPKPKDTLMISRTPEVTCVVVDVSHEDPEVKFNWYVDGVEVHNAKTKPREEQYASTYRVVSVLTVLHQDWLNGKEYKCKVSNKALPAPIEKTISKAKGQPREPQVYTLPPSRCELTKNQVSLSCAVKGFYPSDIAVEWESNGQPENNYKTTPPVLDSDGSFFLVSKLTVDKSRWQQGNVFSCSVMHEALHNHYTQKSLSLSPDYKDDDDK
chain: EPKSSDKTHTCPPCPAPELLGGPSVFLFPPKPKDTLMISRTPEVTCVVVDVSHEDPEVKFNWYVDGVEVHNAKTKPREEQYNSTYRVVSVLTVLHQDWLNGKEYKCKVSNKALPAPIEKTISKAKGQPREPQVCTLPPSRDELTKNQVSLWCLVKGFYPSDIAVEWESNGQPENNYKTTPPVLDSDGSFFLYSKLTVDKSRWQQGNVFSCSVMHEALHNRYTQKSLSLSP
light: DIVMTQSPLSLPVTPGEPASISCRSSQSLVHSNRNTYLHWYQQKPGQAPRLLIYKVSNRFSGVPDRFSGSGSGTDFTLKISRVEAEDVGVYYCGQGTQVPYTFGQGTKLEIKRTVAAPSVFIFPPSDEQLKSGTASVVCLLNNFYPREAKVQWKVDNALQSGNSQESVTEQDSKDSTYSLSSTLTLSKADYEKHKVYACEVTHQGLSSPVTKSFNRGEC
notes: one-arm antibody
B4: CE115HA000 K75R (antibody, human IgG1, kappa, L234A L235A, N297A, name in Kabat numbering)
heavy: QVQLVESGGGVVQPGRSLRLSCAASGFTFSNAWMHWVRQAPGKGLEWVAQIKAKSNNYATYYAESVKGRFTISRDDSRNSLYLQMNSLKTEDTAVYYCRYVHYGAYYGVDAWGQGTTVTVSSASTKGPSVFPLAPSSKSTSGGTAALGCLVKDYFPEPVTVSWNSGALTSGVHTFPAVLQSSGLYSLSSVVTVPSSSLGTQTYICNVNHKPSNTKVDKKVEPKSCDKTHTCPPCPAPEAAGGPSVFLFPPKPKDTLMISRTPEVTCVVVDVSHEDPEVKFNWYVDGVEVHNAKTKPREEQYASTYRVVSVLTVLHQDWLNGKEYKCKVSNKALPAPIEKTISKAKGQPREPQVYTLPPSRCELTKNQVSLSCAVKGFYPSDIAVEWESNGQPENNYKTTPPVLDSDGSFFLVSKLTVDKSRWQQGNVFSCSVMHEALHNHYTQKSLSLSPDYKDDDDK
chain: EPKSSDKTHTCPPCPAPELLGGPSVFLFPPKPKDTLMISRTPEVTCVVVDVSHEDPEVKFNWYVDGVEVHNAKTKPREEQYNSTYRVVSVLTVLHQDWLNGKEYKCKVSNKALPAPIEKTISKAKGQPREPQVCTLPPSRDELTKNQVSLWCLVKGFYPSDIAVEWESNGQPENNYKTTPPVLDSDGSFFLYSKLTVDKSRWQQGNVFSCSVMHEALHNRYTQKSLSLSP
light: DIVMTQSPLSLPVTPGEPASISCRSSQSLVHSNRNTYLHWYQQKPGQAPRLLIYKVSNRFSGVPDRFSGSGSGTDFTLKISRVEAEDVGVYYCGQGTQVPYTFGQGTKLEIKRTVAAPSVFIFPPSDEQLKSGTASVVCLLNNFYPREAKVQWKVDNALQSGNSQESVTEQDSKDSTYSLSSTLTLSKADYEKHKVYACEVTHQGLSSPVTKSFNRGEC
notes: one-arm antibody
B5: CE115HA000 L78I (antibody, human IgG1, kappa, L234A L235A, N297A, name in Kabat numbering)
heavy: QVQLVESGGGVVQPGRSLRLSCAASGFTFSNAWMHWVRQAPGKGLEWVAQIKAKSNNYATYYAESVKGRFTISRDDSKNSIYLQMNSLKTEDTAVYYCRYVHYGAYYGVDAWGQGTTVTVSSASTKGPSVFPLAPSSKSTSGGTAALGCLVKDYFPEPVTVSWNSGALTSGVHTFPAVLQSSGLYSLSSVVTVPSSSLGTQTYICNVNHKPSNTKVDKKVEPKSCDKTHTCPPCPAPEAAGGPSVFLFPPKPKDTLMISRTPEVTCVVVDVSHEDPEVKFNWYVDGVEVHNAKTKPREEQYASTYRVVSVLTVLHQDWLNGKEYKCKVSNKALPAPIEKTISKAKGQPREPQVYTLPPSRCELTKNQVSLSCAVKGFYPSDIAVEWESNGQPENNYKTTPPVLDSDGSFFLVSKLTVDKSRWQQGNVFSCSVMHEALHNHYTQKSLSLSPDYKDDDDK
chain: EPKSSDKTHTCPPCPAPELLGGPSVFLFPPKPKDTLMISRTPEVTCVVVDVSHEDPEVKFNWYVDGVEVHNAKTKPREEQYNSTYRVVSVLTVLHQDWLNGKEYKCKVSNKALPAPIEKTISKAKGQPREPQVCTLPPSRDELTKNQVSLWCLVKGFYPSDIAVEWESNGQPENNYKTTPPVLDSDGSFFLYSKLTVDKSRWQQGNVFSCSVMHEALHNRYTQKSLSLSP
light: DIVMTQSPLSLPVTPGEPASISCRSSQSLVHSNRNTYLHWYQQKPGQAPRLLIYKVSNRFSGVPDRFSGSGSGTDFTLKISRVEAEDVGVYYCGQGTQVPYTFGQGTKLEIKRTVAAPSVFIFPPSDEQLKSGTASVVCLLNNFYPREAKVQWKVDNALQSGNSQESVTEQDSKDSTYSLSSTLTLSKADYEKHKVYACEVTHQGLSSPVTKSFNRGEC
notes: one-arm antibody
B6: CE115HA000 K75T (antibody, human IgG1, kappa, L234A L235A, N297A, name in Kabat numbering)
heavy: QVQLVESGGGVVQPGRSLRLSCAASGFTFSNAWMHWVRQAPGKGLEWVAQIKAKSNNYATYYAESVKGRFTISRDDSTNSLYLQMNSLKTEDTAVYYCRYVHYGAYYGVDAWGQGTTVTVSSASTKGPSVFPLAPSSKSTSGGTAALGCLVKDYFPEPVTVSWNSGALTSGVHTFPAVLQSSGLYSLSSVVTVPSSSLGTQTYICNVNHKPSNTKVDKKVEPKSCDKTHTCPPCPAPEAAGGPSVFLFPPKPKDTLMISRTPEVTCVVVDVSHEDPEVKFNWYVDGVEVHNAKTKPREEQYASTYRVVSVLTVLHQDWLNGKEYKCKVSNKALPAPIEKTISKAKGQPREPQVYTLPPSRCELTKNQVSLSCAVKGFYPSDIAVEWESNGQPENNYKTTPPVLDSDGSFFLVSKLTVDKSRWQQGNVFSCSVMHEALHNHYTQKSLSLSPDYKDDDDK
chain: EPKSSDKTHTCPPCPAPELLGGPSVFLFPPKPKDTLMISRTPEVTCVVVDVSHEDPEVKFNWYVDGVEVHNAKTKPREEQYNSTYRVVSVLTVLHQDWLNGKEYKCKVSNKALPAPIEKTISKAKGQPREPQVCTLPPSRDELTKNQVSLWCLVKGFYPSDIAVEWESNGQPENNYKTTPPVLDSDGSFFLYSKLTVDKSRWQQGNVFSCSVMHEALHNRYTQKSLSLSP
light: DIVMTQSPLSLPVTPGEPASISCRSSQSLVHSNRNTYLHWYQQKPGQAPRLLIYKVSNRFSGVPDRFSGSGSGTDFTLKISRVEAEDVGVYYCGQGTQVPYTFGQGTKLEIKRTVAAPSVFIFPPSDEQLKSGTASVVCLLNNFYPREAKVQWKVDNALQSGNSQESVTEQDSKDSTYSLSSTLTLSKADYEKHKVYACEVTHQGLSSPVTKSFNRGEC
notes: one-arm antibody

T1 sequence (P07766 23-126): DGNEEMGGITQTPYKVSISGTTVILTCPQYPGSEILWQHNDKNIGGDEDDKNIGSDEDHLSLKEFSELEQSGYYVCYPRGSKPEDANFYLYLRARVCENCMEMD

This test addresses T1, CD3 epsilon homodimer protein (UniProt P07766 23-126).
T1 construct: also called CD3 (CD3 epsilon)
The test can be described thus: SPR, CD3 epsilon homodimer on chip, one-arm antibody as analyte.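 Note: surface plasmon resonance at 25 °C with CD3 epsilon homodimer amine-coupled to a CM4 sensor chip, antibody injected as analyte, HBS-EP+ as running buffer.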
Take B1: the “KD ratio (KD of CE115HA000/KD of altered form)” value (shortened to “KD ratio”) was determined as 0.87.

Regarding B2, the “KD ratio” value worked out at 0.96.

Regarding B3, the “KD ratio” value was determined as 0.85.

Turning to B4, the “KD ratio” value is 0.88.

For the molecule B5, the “KD ratio” value stood at 1.08.

Regarding B6, the “KD ratio” value came out at 0.75.
